System: mouse embryonic fibroblasts (MEFs)
Test: Cellular uptake of FITC-peptides by ImageXpress high-content microscopy
Settings: MEFs 2×10^4 cells, 0% FBS, dose varied; text 2 hours, legend 4 hr

BIM BH3_1: unmodified template peptide FITC-BIM BH3_1 (aa 146–166)
TIFI versus FITC-peptide dose, result in words: linear, dose-responsive increase in TIFI

— PMC5055751 (Nature chemical biology, 2016)
